The values below come from the supplement of paper PMC5998384.

Data set [1] concerns HeLa Kyoto. In words: thermal stability score vs G1/S (z-score of summed log2 fold changes over temperatures); higher = more thermally stable than in G1/S.
Data set [2] relates to HeLa Kyoto. Kind of data set: solubility change mitosis vs G1/S (difference of NP-40 vs SDS log2 ratios) (log2 ratio difference); higher = more soluble in mitosis.
Data set [3] has as its system HeLa Kyoto. Kind of data set: solubility in G1/S (NP-40 vs SDS abundance) (log2 ratio); higher = more soluble. The note with it: cell cycle stage: G1/S.
Data set [4] relates to HeLa Kyoto. In words: melting temperature (median over replicates), in situ; higher = more thermally stable.
The mark [5] stands for this setting: cell cycle stage: early G1 (4.5 h after nocodazole release).
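For melting temperature (median over replicates), in situ in this document: HeLa Kyoto cells synchronized by double thymidine or nocodazole block, proteins quantified by TMT10plex mass spectrometry, three independent biological replicates.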
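For solubility change mitosis vs G1/S (difference of NP-40 vs SDS log2 ratios) in this document: synchronized HeLa Kyoto cells (double thymidine block for G1/S, nocodazole release for mitosis), protein amounts in NP-40 versus SDS lysates quantified by mass spectrometry, three biological replicates.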
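For solubility in G1/S (NP-40 vs SDS abundance) in this document: HeLa Kyoto cells arrested at G1/S by double thymidine block, proteins quantified by TMT10plex mass spectrometry in mild NP-40 versus SDS extracts, three biological replicates.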
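For thermal stability score vs G1/S (z-score of summed log2 fold changes over temperatures) in this document: synchronized HeLa Kyoto cells, proteins quantified by TMT10plex mass spectrometry, three biological replicates, mitosis taken 0.5 h after nocodazole release, G1/S directly after double thymidine block.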

NOTCH2: the thermal stability score in the data set with HeLa Kyoto [1] (setting [5]) is -1.09; in the data set with HeLa Kyoto [1] (cell cycle stage: mitosis) it was -2.98. In addition, the “solubility change mitosis (log2)” value in the data set on HeLa Kyoto [2] is -0.171. Further, in the data set on HeLa Kyoto [3], the “solubility in G1/S (log2)” value was -0.0358. For the same substance, the melting temperature with HeLa Kyoto [4] (cell cycle stage: G1/S) worked out at 50.1 °C; with HeLa Kyoto [4] (cell cycle stage: mitosis) it was 51 °C.
With “MAEPSAPESKHKSSLNSSPWSGLMALGNSRHGHHGPGAQCAHKAAGGAAPPKPAPAGLSGGLSQPAGWQSLLSFTILFLAWLAGFSSRLFAVIRFESIIHEFDPWFNYRSTHHLASHGFYEFLNWFDERAWYPLGRIVGGTVYPGLMITAGLIHWILNTLNITVHIRDVCVFLAPTFSGLTSISTFLLTRELWNQGAGLLAACFIAIVPGYISRSVAGSFDNEGIAIFALQFTYYLWVKSVKTGSVFWTMCCCLSYFYMVSAWGGYVFIINLIPLHVFVLLLMQRYSKRVYIAYSTFYIVGLILSMQIPFVGFQPIRTSEHMAAAGVFALLQAYAFLQYLRDRLTKQEFQTLFFLGVSLAAGAVFLSVIYLTYTGYIAPWSGRFYSLWDTGYAKIHIPIIASVSEHQPTTWVSFFFDLHILVCTFPAGLWFCIKNINDERVFVALYAISAVYFAGVMVRLMLTLTPVVCMLSAIAFSNVFEHYLGDDMKRENPPVEDSSDEDDKRNQGNLYDKAGKVRKHATEQEKTEEGLGPNIKSIVTMLMLMLLMMFAVHCTWVTSNAYSSPSVVLASYNHDGTRNILDDFREAYFWLRQNTDEHARVMSWWDYGYQIAGMANRTTLVDNNTWNNSHIALVGKAMSSNETAAYKIMRTLDVDYVLVIFGGVIGYSGDDINKFLWMVRIAEGEHPKDIRESDYFTPQGEFRVDKAGSPTLLNCLMYKMSYYRFGEMQLDFRTPPGFDRTRNAEIGNKDIKFKHLEEAFTSEHWLVRIYKVKAPDNRETLDHKPRVTNIFPKQKYLSKKTTKRKRGYIKNKLVFKKGKKISKKTV [STT3B]”, the results for the thermal stability score with HeLa Kyoto [1] (setting [5]) and in the data set on HeLa Kyoto [1] (cell cycle stage: mitosis) were 3.35 and 3.7, respectively. The “solubility change mitosis (log2)” value with HeLa Kyoto [2] is -0.0861. In addition, in the data set on HeLa Kyoto [3], the “solubility in G1/S (log2)” value is -0.175. The melting temperature in the data set on HeLa Kyoto [4] (cell cycle stage: G1/S) was 53.8 °C; in the data set on HeLa Kyoto [4] (cell cycle stage: mitosis) it was 54.2 °C.
Consider “MMLGPEGGEGFVVKLRGLPWSCSVEDVQNFLSDCTIHDGAAGVHFIYTREGRQSGEAFVELGSEDDVKMALKKDRESMGHRYIEVFKSHRTEMDWVLKHSGPNSADSANDGFVRLRGLPFGCTKEEIVQFFSGLEIVPNGITLPVDPEGKITGEAFVQFASQELAEKALGKHKERIGHRYIEVFKSSQEEVRSYSDPPLKFMSVQRPGPYDRPGTARRYIGIVKQAGLERMRPGAYSTGYGGYEEYSGLSDGYGFTTDLFGRDLSYCLSGMYDHRYGDSEFTVQSTTGHCVHMRGLPYKATENDIYNFFSPLNPVRVHIEIGPDGRVTGEADVEFATHEEAVAAMSKDRANMQHRYIELFLNSTTGASNGAYSSQVMQGMGVSAAQATYSGLESQSVSGCYGAGYSGQNSMGGYD [HNRNPF]”, for which the thermal stability score is 3.58 in the data set on HeLa Kyoto [1] (setting [5]) and 9.17 with HeLa Kyoto [1] (cell cycle stage: mitosis). In the data set on HeLa Kyoto [2], the “solubility change mitosis (log2)” value is -0.0538. Further, the “solubility in G1/S (log2)” value in the data set on HeLa Kyoto [3] was -0.0868. Besides, the melting temperature came to 48 °C with HeLa Kyoto [4] (cell cycle stage: G1/S) and 49 °C with HeLa Kyoto [4] (cell cycle stage: mitosis).
Regarding “MASCPDSDNSWVLAGSESLPVETLGPASRMDPESERALQAPHSPSKTDGKELAGTMDGEGTLFQTESPQSGSILTEETEVKGTLEGDVCGVEPPGPGDTVVQGDLQETTVVTGLGPDTQDLEGQSPPQSLPSTPKAAWIREEGRCSSSDDDTDVDMEGLRRRRGREAGPPQPMVPLAVENQAGGEGAGGELGISLNMCLLGALVLLGLGVLLFSGGLSESETGPMEEVERQVLPDPEVLEAVGDRQDGLREQLQAPVPPDSVPSLQNMGLLLDKLAKENQDIRLLQAQLQAQKEELQSLMHQPKGLEEENAQLRGALQQGEAFQRALESELQQLRARLQGLEADCVRGPDGVCLSGGRGPQGDKAIREQGPREQEPELSFLKQKEQLEAEAQALRQELERQRRLLGSVQQDLERSLQDASRGDPAHAGLAELGHRLAQKLQGLENWGQDPGVSANASKAWHQKSHFQNSREWSGKEKWWDGQRDRKAEHWKHKKEESGRERKKNWGGQEDREPAGRWKEGRPRVEESGSKKEGKRQGPKEPPRKSGSFHSSGEKQKQPRWREGTKDSHDPLPSWAELLRPKYRAPQGCSGVDECARQEGLTFFGTELAPVRQQELASLLRTYLARLPWAGQLTKELPLSPAFFGEDGIFRHDRLRFRDFVDALEDSLEEVAVQQTGDDDEVDDFEDFIFSHFFGDKALKKRSGKKDKHSQSPRAAGPREGHSHSHHHHHRG [PBXIP1]”, the thermal stability score is -1.68 in the data set with HeLa Kyoto [1] (setting [5]) and 0.474 in the data set on HeLa Kyoto [1] (cell cycle stage: mitosis). Further, the “solubility change mitosis (log2)” value in the data set on HeLa Kyoto [2] was -0.0444. In addition, the “solubility in G1/S (log2)” value in the data set on HeLa Kyoto [3] is -0.166. Also, the results for the melting temperature in the data set on HeLa Kyoto [4] (cell cycle stage: G1/S) and in the data set with HeLa Kyoto [4] (cell cycle stage: mitosis) were 55.4 °C and 53.7 °C, respectively.
For the substance “MWKASAGHAVSIAQDDAGADDWETDPDFVNDVSEKEQRWGAKTVQGSGHQEHINIHKLRENVFQEHQTLKEKELETGPKASHGYGGKFGVEQDRMDKSAVGHEYQSKLSKHCSQVDSVRGFGGKFGVQMDRVDQSAVGFEYQGKTEKHASQKDYSSGFGGKYGVQADRVDKSAVGFDYQGKTEKHESQRDYSKGFGGKYGIDKDKVDKSAVGFEYQGKTEKHESQKDYVKGFGGKFGVQTDRQDKCALGWDHQEKLQLHESQKDYKTGFGGKFGVQSERQDSAAVGFDYKEKLAKHESQQDYSKGFGGKYGVQKDRMDKNASTFEDVTQVSSAYQKTVPVEAVTSKTSNIRANFENLAKEKEQEDRRKAEAERAQRMAKERQEQEEARRKLEEQARAKTQTPPVSPAPQPTEERLPSSPVYEDAASFKAELSYRGPVSGTEPEPVYSMEAADYREASSQQGLAYATEAVYESAEAPGHYPAEDSTYDEYENDLGITAVALYDYQAAGDDEISFDPDDIITNIEMIDDGWWRGVCKGRYGLFPANYVELRQ [CTTN]”, the thermal stability score with HeLa Kyoto [1] (setting [5]) was -3.16; in the data set on HeLa Kyoto [1] (cell cycle stage: mitosis) it was -3.35. Moreover, the “solubility change mitosis (log2)” value in the data set with HeLa Kyoto [2] was -0.0191. The “solubility in G1/S (log2)” value in the data set on HeLa Kyoto [3] is -0.21. Also, the melting temperature with HeLa Kyoto [4] (cell cycle stage: G1/S) turned out to be 60.6 °C; with HeLa Kyoto [4] (cell cycle stage: mitosis), 57.6 °C.
